Molecular target: human CD3 expressed on cells (Jurkat cells; human T-cells of PBMC) (human) (UniProt P09693)
Experiment: cell-based or functional assay

Sequence of human CD3 expressed on cells (Jurkat cells; human T-cells of PBMC) (human) (chain, as listed by the source, chain 1 of 4): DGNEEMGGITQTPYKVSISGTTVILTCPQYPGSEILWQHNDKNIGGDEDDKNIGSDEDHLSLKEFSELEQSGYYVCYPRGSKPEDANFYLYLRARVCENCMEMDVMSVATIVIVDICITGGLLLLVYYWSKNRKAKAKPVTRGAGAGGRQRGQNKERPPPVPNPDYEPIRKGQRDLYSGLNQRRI
Sequence of human CD3 expressed on cells (Jurkat cells; human T-cells of PBMC) (human) (chain, as listed by the source, chain 2 of 4): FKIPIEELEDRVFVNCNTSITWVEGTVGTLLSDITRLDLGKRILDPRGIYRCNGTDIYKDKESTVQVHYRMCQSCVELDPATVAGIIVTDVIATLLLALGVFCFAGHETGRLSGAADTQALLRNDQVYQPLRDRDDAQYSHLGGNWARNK
Sequence of human CD3 expressed on cells (Jurkat cells; human T-cells of PBMC) (human) (P09693 23-182, chain 3 of 4): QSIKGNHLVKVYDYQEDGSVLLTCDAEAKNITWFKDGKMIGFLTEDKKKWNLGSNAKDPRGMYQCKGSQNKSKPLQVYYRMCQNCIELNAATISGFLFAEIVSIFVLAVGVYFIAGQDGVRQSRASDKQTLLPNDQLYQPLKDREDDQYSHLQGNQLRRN
Sequence of human CD3 expressed on cells (Jurkat cells; human T-cells of PBMC) (human) (P20963 22-164, chain 4 of 4): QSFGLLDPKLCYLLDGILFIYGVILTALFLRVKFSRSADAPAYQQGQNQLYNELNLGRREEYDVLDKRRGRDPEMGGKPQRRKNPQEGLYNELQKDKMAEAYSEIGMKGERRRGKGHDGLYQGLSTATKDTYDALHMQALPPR

B1: H1H5756B (antibody, human IgG1, V domains shown)
VH: EVQLVESGGGVVQPGRSLRLSCTASGFPFSRYGMHWVRQAPGKGLEWVTFIWYDGSNKYYADSAKGRFTITRDNSKNTVYLQMDSLRADDTAVYYCVRDQAALYYFDSWGQGTLVTVSS
VL: DIQMTQSPSSVSASVGDRVTITCRASQGISRWLAWYQQKPGKAPKLLISAASSLQSGVPSRFSGSGSGTDFTLTISGLQPEDFATYYCQKANSFPFTFGPGTKLEIKR
U937 Cytotoxicity Human T-cells: 76.9 pM
